Assays:
Test in all cases: pull-down binding Z-score (relative to library population); higher = stronger binding
TO-N3 (biotin conjugate) = conditions: RNA library: Library-2
Outline: (§1)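 A heat-folded, dye-end-labelled (Cy5 or Cy3) RNA library (1 μg, phosphate/NaCl/KCl buffer) was exposed for 60 min at 25 °C to streptavidin beads holding 100 pmol of biotin-conjugated small molecule. RNA retained on the beads was eluted in hot SDS and hybridised to a DNA barcode microarray for 20 h at 55.5 °C. Binding scores were Z-scores against the library mean and standard deviation, calculated after subtracting beads alone and taking trimmed means of replicate probes.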

[1] = tested on: TO-N3-2 (biotin conjugate); conditions: RNA library: Library-2
Outline: as §1

[2] = tested on: G-clamp-N3 (biotin conjugate); conditions: RNA library: Library-1 (pre-miRNA loops + repeats)
Outline: as §1

[3] = tested on: TO-3-N3-2 (biotin conjugate); conditions: RNA library: Library-2
Outline: as §1

[4] = tested on: TO-3-N3 (biotin conjugate); conditions: RNA library: Library-2
Outline: as §1

Sequence | pull-down binding Z-score (TO-N3 (biotin conjugate)) | pull-down binding Z-score [1] | pull-down binding Z-score [2] | pull-down binding Z-score [3] | pull-down binding Z-score [4]
CCAAAUUUCAUGCG [hsa-mir-4454] | 0.0342 | -0.0452 | -1.72 | -0.18 | -0.0597
ACCUCCUGGCUUUUCCUCUGCAGCAUGGCUCGGACCUAGUGCAAUGUUUAAGCU [hsa-mir-6826] | 0.659 | 0.769 | -0.435 | 0.506 | 0.104
UUCUUCCUGGAGUCGGGGAAAAG [hsa-mir-320e] | 0.516 | 0.278 | 1.31 | -0.0301 | 0.308
CUUCUUACUGCACCAGUGAAG [hsa-mir-5683] | -0.0796 | 0.131 | -1.53 | -0.268 | -0.186
GCUUGCUGUACAUAACUCAAUAGCCGGAAGC [hsa-mir-129-2] | -0.0532 | 0.327 | -0.369 | -0.316 | -0.0763
UGGAAGCUCCAGGUGCCAACCACCUGCCUCUA [hsa-mir-6731] | 0.231 | 0.456 | -0.826 | -0.134 | 0.00854
CCCACCCUGAGUUUUGGUGGG [hsa-mir-6508] | -0.245 | -1.22 | -0.873 | -0.26 | -0.066
UUCUAGUCCCUAUUAGACUAGAA [hsa-mir-5681a] | -1 | -1.08 | -0.692 | -0.506 | -0.543
CUGAGGAAUUUGCUGGGAUAUGUCAG [hsa-mir-584] | 0.66 | 0.799 | 0.609 | 0.168 | 0.181
GUCAUUUUUCUGUGACUGCACAUGGC [hsa-mir-3136] | -0.215 | -0.214 | -0.497 | -0.15 | -0.191
CCCACGUCGCAUGCGCCCCGGGAAAGCGUGGG [hsa-mir-3180-1_3180-3_3180-2] | 0.682 | 0.515 | 1.94 | -0.158 | 0.614
UCCAACCUGAAAUCCUUCUGUAGGUUGAG [hsa-mir-5702] | -0.245 | 0.0189 | 1.18 | -0.273 | -0.291
GCUGUUGGUCGGGUUGUGACAUUGCCCGCUGUGGAGAUAACUGC [hsa-let-7i] | 0.207 | 1.01 | -0.338 | 0.672 | -0.307
AGGUUGGCUGGGCCAGGCCUGACCU [hsa-mir-4722] | 0.435 | 1.16 | 0.156 | -0.00273 | 0.0532
AAUCCCAGCACUUUGGGAG [hsa-mir-3929] | 0.0138 | 0.171 | 0.566 | -0.0338 | 0.0452
AGUCACUUAGAUUACAUGUGACU [hsa-mir-888] | -0.368 | -0.915 | 0.394 | -0.513 | 0.0487
GGGAUGAGCCCUGGCUCUGUUUCCUAG [hsa-mir-378h] | 0.385 | 0.596 | -0.127 | -0.0124 | 0.0333
CCCACCAUGUACCAGUGGG [hsa-mir-4422] | -0.813 | -0.708 | -1.07 | -0.535 | -0.343
CCCGAGGCCCUUCAUGCUGCCCAGCUCGGG [hsa-mir-486-1] | 0.727 | 1.19 | 0.819 | 0.923 | 0.473

Sequence | pull-down binding Z-score (TO-N3 (biotin conjugate)) | pull-down binding Z-score [1] | pull-down binding Z-score [2] | pull-down binding Z-score [3] | pull-down binding Z-score [4]
UGGCAAUUCAGUAAAAAUGCUCA [hsa-mir-6715b] | -0.281 | 0.143 | -0.751 | -0.14 | -0.296
GCACUCUGUAGUUUGGGUACACAGUGC [hsa-mir-5011] | -0.77 | -0.478 | 1.49 | -0.259 | -0.741
GUUCCUGUGAUUUUUC [hsa-mir-198] | -0.29 | -0.289 | -0.819 | -0.212 | -0.267
UAAUGAUUGGAGUCAUUUUCAGAGCAUUA [hsa-mir-3202-1] | -0.407 | -0.537 | 1.44 | -0.262 | -0.304
CACUCCCGGGAUCCCCAGGGAC [hsa-mir-3176] | 0.25 | 0.68 | -1.23 | -0.144 | 0.149
GGCAGGGGGAGCUGCAGGGCUAUGGGAGGGGCCCCAGCGUCUGA [hsa-mir-1233-2_1233-1] | 3.66 | 3.08 | 2.96 | 2.98 | 3.54
UUGCUCACGGUAAGAAAAACAUGAGUAA [hsa-mir-8062] | 0.238 | -0.388 | 0.431 | 0.384 | 0.553
GGUGUCAUGCCCCAAGAUAACC [hsa-mir-634] | -0.387 | 0.0681 | -0.532 | -0.28 | -0.514
GAACUAACUAACCAGAACUAUUUUGUUC [hsa-mir-4652] | -0.0697 | -0.742 | -1.48 | 0.0681 | 0.249
GGAUGAAAGUCAAAGAAUCC [hsa-mir-1262] | 1.17 | 0.0488 | -0.564 | 0.0666 | 1.25
AGCACUUUCUGUUGUCUGAAAGAAAAGAAAGUGCU [hsa-mir-516a-1_516a-2] | 0.686 | -0.0183 | 1.47 | 0.0524 | 0.399
AAUAAAGUAUGUCCACAGCUGAAAGGACAUACUUUAUU [hsa-mir-4464] | -1.18 | -1.28 | -0.77 | -0.236 | -0.7
CAGGCCAGGGGCAGACAGUGGACAGAGAACAGUGCCCAAGACCACUG [hsa-mir-378e] | 1.27 | 1.73 | 1.13 | 0.736 | 0.426
UUCAGAGUCAAUAUAAUUUUCUAG [hsa-mir-29a] | 0.485 | -0.467 | 0.0825 | 0.27 | 0.749
CAUAUGUGUAACAGACAUACAUACAUACAUAUG [hsa-mir-3688-2] | -1.02 | -1.31 | -0.866 | -0.463 | -0.818
AAAUAAAAGAUGGAGUCGUUUGACGUCUUUUAACACCCUUU [hsa-mir-8055] | -0.706 | -0.866 | -0.175 | -0.1 | -0.623
UUUCUCUUGUCUAAAAGAAAAGAAA [hsa-mir-518f] | -0.8 | -0.969 | -0.201 | -0.281 | -0.761
UGUUGGGGGGACA [hsa-mir-4262] | 1.67 | 0.707 | -0.216 | 1.63 | 2.24
UUUGGUAUUACUUUCAGUGGCAAA [hsa-mir-548j] | -0.448 | -0.485 | 0.937 | 0.0283 | -0.416

Sequence | pull-down binding Z-score (TO-N3 (biotin conjugate)) | pull-down binding Z-score [1] | pull-down binding Z-score [2] | pull-down binding Z-score [3] | pull-down binding Z-score [4]
AUCAAAGUGGGGACUCAUGGGGAGAG [hsa-mir-4284] | 2.65 | 1.07 | 0.195 | 1.43 | 3.11
CAUUUCCUUCAUGAUUAGGAAUACUACUUUGAAAUG [hsa-mir-4712] | -0.856 | -0.896 | -0.338 | -0.179 | -0.641
CGAGGUGGGCUAGGCUCGGGCCCGUGGCG [hsa-mir-3656] | 1.7 | 2.8 | 2.89 | 0.185 | 0.715
CAGGCUGCUAAACAACAGAACGAGCACUG [hsa-mir-378f] | -0.0846 | 0.421 | 0.125 | -0.122 | -0.22
GCCCGCUGUGUUCACUCGGGC [hsa-mir-602] | -0.398 | -0.52 | 0.773 | -0.556 | -0.169
AGGCAACAUGGCCGAGAGGCCGGGGCCU [hsa-mir-564] | -0.12 | 0.551 | 2.93 | -0.533 | -0.144
CAGUGGGGACAUG [hsa-mir-4531] | 1.77 | 0.957 | -0.559 | 1.52 | 2.18
ACAGGUAGUGGCCACAGUGAGAAAGCUGGCCUGUCCUUCUGC [hsa-mir-4314] | 0.245 | 0.681 | -0.00957 | 0.0324 | -0.00864
GGGUCAGUGGCAGAGCCAGGCAGAUGCUGACCC [hsa-mir-6832] | 0.45 | 0.72 | 2.93 | 0.267 | 0.349
AUAGAACAUUGACAUCAACACUAG [hsa-mir-4278] | -0.204 | -0.508 | -2.05 | -0.0605 | -0.104
UUUCCCAUUAUUUUAAUUGCGAA [hsa-mir-570] | -0.927 | -1.16 | -0.975 | -0.363 | -0.699
ACGUCCAGUGGUGCAGAGGUAAUGGACGU [hsa-mir-1306] | 0.283 | 1.37 | 2.13 | 0.227 | 0.0986
UUUGCGUUACUUUCAAUCGUAAA [hsa-mir-548x] | -1.13 | -1.46 | -0.79 | -0.253 | -1.01
UUCUGUUGUCUGAAAGAAACCAA [hsa-mir-518d] | -0.0135 | 0.126 | -1.34 | -0.0975 | -0.253
GUGACGCCGCGAAGUGCAC [hsa-mir-3147] | 0.406 | 0.997 | 1.18 | 0.172 | 0.25
GGAAGAAGGCUGAGGGAGAUGCCUUCUUCC [hsa-mir-6512] | -0.155 | 1.02 | 0.436 | -0.106 | -0.455
UGCUCUGGUGACUGAGGACCGCCAGGCA [hsa-mir-4763] | -0.091 | 0.367 | -0.385 | -0.197 | -0.245
UGGCCUGGCAGUGCGUCGGAAGAACAGGGCGGGUGGGGCC [hsa-mir-4792] | 3.93 | 3.57 | 2.84 | 3.11 | 4

Source: the supplement of paper PMC11865577
